Results reported in the supplement of paper PMC10126150.
± gives the standard deviation of the averaged measurements.

system: ATP; experiment: switch fluorescence ratio, 500 uM ATP over buffer (Cy3 cluster intensity, sum of 5 cycles each) (fold (ratio)); higher = stronger signal-on switching upon ATP binding; sequences stand for … in TCGTCGGCAGCGTCAGATGTGTATAAGAGACAGTTTTTTTTTTTTTTTTTTTTTTTTT…TC; details: aptamer strand: ATP DNA aptamer (quencher-CACCTGGGGGAGTATTGCGGAGGAAGG + anchor), 100 nM annealed; ATP concentration: 500 uM
How it was run: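 Exposure to 500 uM ATP lasted 15 min at 22 °C before imaging, and a selection-buffer image was taken beforehand, for Cy3-labelled switching-strand clusters on a modified Illumina MiSeq flow-cell annealed to 100 nM quencher-labelled ATP aptamer. Five buffer/ATP cycles were run with NaOH stripping and re-annealing between them. The fluorescence ratio per cluster is summed target-cycle over summed buffer-cycle Cy3 intensity, averaged per switch-domain sequence. Clusters outside 100-1000 RFU were excluded.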

| Sequence | switch fluorescence ratio |
| --- | --- |
| ACCATTAATT | 0.991 ± 0.029 |
| ACCATTGTGA | 0.998 ± 0.014 |
| ACCATTTGTC | 1.06 ± 0.094 |
| ACCCATGAAG | 0.989 ± 0.015 |
| ACCCGAGTTT | 1 ± 0.018 |
| ACCCGGACCT | 1.34 ± 0.059 |
| ACCCGGCTTA | 1.19 ± 0.22 |
| ACCCTAGACG | 1.03 ± 0.045 |
| ACCCTGCAGA | 1.06 ± 0.0064 |
| ACCCTGGAAC | 1.045 ± 0.0039 |
| ACCCTGTTGG | 1.01 ± 0.029 |
| ACCCTTATAG | 1.018 ± 0.0093 |
| ACCGAGCATG | 1.36 ± 0.1 |
| ACCGAGTTCT | 0.99 ± 0.057 |
| ACCGATCTCA | 1.048 ± 0.0089 |
| ACCGCATAGG | 1.0484 ± 4.5e-05 |
| ACCGCATCGT | 1.21 ± 0.027 |
| ACCGCGTGGG | 1.04 ± 7.3e-05 |
| ACCGGAGAGC | 1.1 ± 0.18 |
| ACCGGAGGGC | 0.9905 ± 0.0044 |
| ACCGGCACGG | 0.9679 ± 0.0037 |
| ACCGGGCCCT | 1.008 ± 0.0093 |
| ACCGGGCGCC | 0.967 ± 0.027 |
| ACCGGGGTGC | 1.612 ± 0.0063 |
| ACCGGTTACC | 1.09 ± 0.029 |

| Sequence | switch fluorescence ratio |
| --- | --- |
| ACCGGTTACG | 1.027 ± 0.0055 |
| ACCGTATTTG | 1.119 ± 0.0047 |
| ACCGTCCCCA | 1.26 ± 0.11 |
| ACCGTGATGT | 1.08 ± 0.024 |
| ACCGTGCTTA | 1.01 ± 0.032 |
| ACCGTTGGGG | 1.04 ± 0.02 |
| ACCTAATGTT | 1.02 ± 0.016 |
| ACCTAGCTCC | 1.71 ± 0.056 |
| ACCTAGGGAG | 1.05 ± 0.02 |
| ACCTATCCGG | 1.03 ± 0.017 |
| ACCTATCTTG | 1.03 ± 0.016 |
| ACCTATTAGA | 1.01 ± 0.022 |
| ACCTCGTTTC | 1.02 ± 0.018 |
| ACCTGCGGGG | 1.01 ± 0.023 |
| ACCTGGCACA | 1.09 ± 0.012 |
| ACCTGGGTAT | 1.01 ± 0.049 |
| ACCTTAAAGA | 0.9915 ± 0.005 |
| ACCTTAATTA | 1.1 ± 0.044 |
| ACCTTATAAT | 1.025 ± 0.0092 |
| ACCTTTTAGT | 1.04 ± 0.018 |
| ACGAAAAGTG | 1.05 ± 0.072 |
| ACGAAAATTT | 1.05 ± 0.13 |
| ACGAAATAGG | 1.07 ± 0.035 |
| ACGAAATGTT | 0.988 ± 0.021 |
| ACGAACGGGG | 1.27 ± 0.1 |

| Sequence | switch fluorescence ratio |
| --- | --- |
| ACGAAGATTA | 1.03 ± 0.014 |
| ACGAAGATTT | 1.03 ± 0.066 |
| ACGAAGGGAG | 1.02 ± 0.031 |
| ACGAAGTTTT | 1.02 ± 0.0028 |
| ACGACCGGCA | 1.11 ± 0.098 |
| ACGACCTTGT | 1.03 ± 0.018 |
| ACGACGGGGG | 1.2 ± 0.23 |
| ACGACTCCCG | 1.109 ± 0.0044 |
| ACGACTGTAG | 1.02 ± 0.029 |
| ACGACTTTTG | 0.995 ± 0.042 |
| ACGAGACGAC | 1.06 ± 0.023 |
| ACGAGACGC | 1.16 ± 0.031 |
| ACGAGATGAC | 1.05 ± 0.067 |
| ACGAGCCATG | 1.1 ± 0.015 |
| ACGAGGGATG | 1.01 ± 0.029 |
| ACGAGGGGAA | 1.015 ± 0.0057 |
| ACGAGGGGGC | 1.24 ± 0.34 |
| ACGAGGTGGG | 0.987 ± 0.017 |
| ACGAGGTTTT | 1.03 ± 0.042 |
| ACGAGTTCGC | 1.04 ± 0.025 |
| ACGATAATCG | 0.996 ± 0.008 |
| ACGATCAGCA | 1.05 ± 0.047 |
| ACGATCGGGC | 1.06 ± 0.05 |
| ACGATCTCCC | 1.31 ± 0.098 |
| ACGATCTTGC | 1.02 ± 0.035 |

| Sequence | switch fluorescence ratio |
| --- | --- |
| ACGATGTACT | 1.1 ± 0.013 |
| ACGATGTTGG | 0.994 ± 0.023 |
| ACGATTATGC | 1.04 ± 0.11 |
| ACGATTTTTC | 0.974 ± 0.056 |
| ACGCAGCTGT | 1.379 ± 0.0027 |
| ACGCAGTTCC | 1.151 ± 0.0075 |
| ACGCATTACA | 3.9 ± 1.6 |
| ACGCCAATGT | 1.34 ± 0.076 |
| ACGCCACATT | 1.55 ± 0.091 |
| ACGCCAGCTA | 1.137 ± 0.004 |
| ACGCCCTTTT | 1.05 ± 0.052 |
| ACGCCGGGGG | 1.01 ± 0.031 |
| ACGCCGGGGT | 1.3 ± 0.51 |
| ACGCGCCTGG | 1.05 ± 0.043 |
| ACGCGCGTCG | 1 ± 0.063 |
| ACGCGGCGAT | 1.08 ± 0.026 |
| ACGCGGGTTT | 1.02 ± 0.02 |
| ACGCTCATGT | 1.05 ± 0.013 |
| ACGCTGCCGG | 1.1 ± 0.057 |
| ACGGAAATGT | 1.18 ± 0.1 |
| ACGGACGCCA | 1.21 ± 0.019 |
| ACGGAGGCAT | 1.31 ± 0.024 |
| ACGGAGGGAT | 1.32 ± 0.032 |
| ACGGAGTAAA | 0.99939 ± 0.00086 |
| ACGGATGTTT | 0.997 ± 0.022 |
